# From article PMC12723162, “Alphaherpesvirus pUL21 homologs use non-canonical sequences to compete with cellular adaptors for protein phosphatase 1 binding” (The Journal of Biological Chemistry, 2025)
# Entries after “also recorded” stand apart in the source; their conditions may differ. Primed or numbered codes have the meaning given here. Where no end group is shown, it is not given here. FITC′ = fluorescein isothiocyanate; Ahx = NCCCCCC(=O)O
# What was measured:
# [1] = biological target: T1, PP1γ catalytic domain (residues 7–300)-H6 (mouse, UniProt P63087 7-300); experiment: ITC; 25 °C; 50 mM HEPES pH 8.0, 500 mM NaCl, 0.5 mM TCEP; 12 x 3 μl injections; peptide or pORF38-NLT titrated into PP1γ catalytic domain; one-site binding model; syringe and cell contents in Table S1; details: both partners purified
# T1 construct: mouse PP1γ catalytic domain, residues 7-300; no tag cleavage is described; also called PP1 catalytic domain; protein phosphatase 1; source: E. coli T7 Express lysY/Iq, purified (Ni-NTA, SEC)
# [2] = biological target: T1, PP1γ catalytic domain (residues …); experiment: fluorescence polarisation; competition: serial dilution of competitor added to a pre-formed complex of 2 nM FITC-GADD34 peptide and 250 nM PP1γ catalytic domain (final); 50 mM HEPES pH 8.0, 500 mM NaCl, 0.05% TWEEN-20; 27 °C; details: both partners purified
# [3] = biological target: T1, PP1γ catalytic domain (residues …); experiment: fluorescence polarisation; competition: increasing pUL21 added to a pre-formed complex of 2 nM FITC-GADD34 peptide and 250 nM PP1γ catalytic domain; Tris pH 8.5 in place of HEPES pH 8; details: both partners purified
# [4] = biological target: T2, PP1γ catalytic domain : GADD34 peptide pre-formed complex (Mus musculus, UniProt P63087); experiment: Competition fluorescence anisotropy in Tris pH 8.5 buffer; assay type: binding; details: 2 nM fluorescent GADD34 peptide + 250 nM PP1γ
# T2 construct: mouse PP1γ catalytic domain (residues 7–300)-H6; His6 (C); made in house; host or cells: E. coli T7 Express lysY/Iq (PP1γ); tracer peptide synthesised by GenScript
# Description: Similar competition fluorescence anisotropy experiments with purified full-length pUL21 (Fig. 5E) were performed in a buffer optimized to enhance solubility of the protein (Tris pH 8.5 in place of HEPES pH 8). […] To test whether optimization of the TROPPO sequence to better match a canonical RVxF motif could enhance binding, we generated, expressed and purified a pUL21-H6 mutant where residues A237 and V239 had been substituted for valine and phenylalanine, respectively (pUL21-RVxF, Fig. 5E).
# Bacterial expression plasmids encoding the mouse PP1γ catalytic domain (residues 7–300)-H6 and pUL21-H6, and mammalian expression vectors encoding pUL21(FV242AA)-GFP, pORF38-GFP and pORF38(FV255AA)-GFP, were described previously ([23]). We note that the mouse and human PP1γ catalytic domains share 100% amino acid identity. pORF38-NLT-H6 was generated by sub-cloning residues 1 to 263 of ORF38 into the vector pOPTnH ([52]). pUL21-RVxF-H6 was generated by inserting the mutations A237V and V239F into pUL21-H6 by QuikChange site-directed mutagenesis. Human PP1α was cloned from HeLa cell cDNA into a vector derived from pF5K (Promega) with an N-terminal Myc epitope tag via restriction-based cloning, and point mutations were introduced into Myc-PP1α by QuikChange mutagenesis. […]
# Proteins were expressed using E. coli T7 Express lysY/I^q cells (New England Biolabs) grown in 2 × TY medium at 37 °C to OD600 0.8 to 1.2 before cooling to 22 °C and induction of protein expression using 0.4 mM IPTG. […] Fractions were analysed by SDS-PAGE and those containing the desired protein were pooled, concentrated using centrifugal concentrators (Millipore) and stored at 4 °C (short-term) or snap-frozen in liquid nitrogen for long-term storage at −70 °C.
# Fluorescence anisotropy was measured using a SpectraMax i3 microplate reader (Molecular Devices) with wavelengths 485 ± 20 nm (excitation) and 535 ± 25 nm (emission). […]
# [5] = tested on: endogenous PP1α; experiment: GFP affinity capture / co-IP of endogenous PP1α with GFP-tagged bait; assay type: binding, human; details: HEK 293T cells, 24 h post-transfection, GFP-Trap, immunoblot; representative of two independent experiments
# [6] = tested on: endogenous PP1α; details: HEK 293T cells; cited from earlier work
# Description: (§1) HSV-1 pUL21 was recently identified as a novel viral PP1 regulatory protein that promotes virus replication and spread. HSV-1 pUL21 and its homologues across the alphaherpesviruses comprise two folded domains ([21], [22]) that are linked by a flexible linker domain ([23]). PP1 binding to pUL21 requires a novel SLiM, termed the Twenty-one Recruitment Of Protein Phosphatase One (TROPPO) motif, that is present in the linker region and is conserved across alphaherpesviruses.
# [7] = tested on: endogenous PP1β; details: HEK 293T cells; cited from earlier work
# Description: as §1
# [8] = tested on: endogenous PP1γ; details: HEK 293T cells; cited from earlier work
# Description: as §1
# [9] = biological target: T1, PP1γ catalytic domain (residues …); experiment: fluorescence polarisation; direct titration of PP1γ catalytic domain against FITC-GADD34 peptide in the buffer optimised for pUL21 (Tris pH 8.5 in place of HEPES pH 8); details: both partners purified
# [10] = biological target: T1, PP1γ catalytic domain (residues …); experiment: fluorescence polarisation; direct titration: 2 nM FITC-GADD34 peptide with a serial dilution of PP1γ catalytic domain; 50 mM HEPES pH 8.0, 500 mM NaCl, 0.05% TWEEN-20; 27 °C; one-site binding model; details: both partners purified
# T1 sequence (P63087 7-300): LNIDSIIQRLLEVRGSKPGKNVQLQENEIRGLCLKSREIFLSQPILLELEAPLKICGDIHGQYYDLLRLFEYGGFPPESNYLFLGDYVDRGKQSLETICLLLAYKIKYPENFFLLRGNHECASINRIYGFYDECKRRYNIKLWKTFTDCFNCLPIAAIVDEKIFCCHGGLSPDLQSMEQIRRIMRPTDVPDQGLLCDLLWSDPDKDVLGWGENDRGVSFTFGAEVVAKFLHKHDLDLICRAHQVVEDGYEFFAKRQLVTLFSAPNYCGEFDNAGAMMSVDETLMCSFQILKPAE
# T2 sequence (P63087 7-300, one chain of several): as the sequence (P63087 7-300) above
molecule,measurement,setting,value
"pORF38-NLT-H6 (domain or fragment, VZV pORF38 residues 1-263: N-terminal domain plus linker up to the end of the TROPPO motif (NLT region); Sub-cloned into the vector pOPTnH; also called pOPF38-NLT; source: E. coli T7 Express lysY/Iq, purified (Ni-NTA, SEC); not shown: His6, C-terminal, kept) MEFPYHSTVSYNGVTFYFNERATRAYFICGGCLISIPRKHGGEIAKFGHVVRGVGPGDRSVASYVRSELNRTGKTWAVSSNNNCVFLDRVALLAAGSGAVDRDLCGTFDVEVEDPTLADYLVSLPVTHLTLVAGVDVTRENKLKLFPTPTAINTTNGFMYVPNEASFSLVYMRMLELPESLQELVSGLFDGTPEIRDALNGSNDDEKTSIIVSRRAADVVTEDVKADDVPISGEPYSEKQPRRRKKSDHITLSNFVQIRTIPR",Kd,[1],497 nM
same,stoichiometry N,[1],1
same,IC50,[2],417 nM
"pUL21-RVxF-H6 (natural protein, methods, results and legend print V239F; also called pUL21 A237V + V239F (RVxF) mutant; source: E. coli T7 Express lysY/Iq, purified (Ni-NTA, SEC); not shown: His6, C-terminal, kept) MELSYATTMHYRDVVFYVTTDRNRAYFVCGGCVYSVGRPCASQPGEIAKFGLVVRGTGPDDRVVANYVRSELRQRGLQDVRPIGEDEVFLDSVCLLNPNVSSELDVINTNDVEVLDECLAEYCTSLRTSPGVLISGLRVRAQDRIIELFEHPTIVNVSSHFVYTPSPYVFALAQAHLPRLPSSLEALVSGLFDGIPAPRQPLDAHNPRTDVVITGRRAPRPIAGSGAGSGGAGAKRVTFSEFVQVKHIDRVGPAGVSPAPPPNNTDSSSLVPGAQDSAPPGPTLRELWWVFYAADRALEEPRADSGLTREEVRAVRGFREQAWKLFGSAGAPRAFIGAALGLSPLQKLAVYYYIIHRERRLSPFPALVRLVGRYTQRHGLYVPRPDDPVLADAINGLFRDALAAGTTAEQLLMFDLLPPKDVPVGSDVQADSTALLRFIESQRLAVPGGVISPEHVAYLGAFLSVLYAGRGRMSAATHTARLTGVTSLVLAVGDVDRLSAFDRGAAGAASRTRAAGYLDVLLTVRLARSQHGQSV",IC50,[3],337 nM
"pUL21-RVxF: pUL21-H6 with mutations A237V and V239F (protein, left off: His6, C-terminal, kept, pUL21-H6 with mutations A237V and V239F) MELSYATTMHYRDVVFYVTTDRNRAYFVCGGCVYSVGRPCASQPGEIAKFGLVVRGTGPDDRVVANYVRSELRQRGLQDVRPIGEDEVFLDSVCLLNPNVSSELDVINTNDVEVLDECLAEYCTSLRTSPGVLISGLRVRAQDRIIELFEHPTIVNVSSHFVYTPSPYVFALAQAHLPRLPSSLEALVSGLFDGIPAPRQPLDAHNPRTDVVITGRRAPRPIAGSGAGSGGAGAKRVTFSEFVQVKHIDRVGPAGVSPAPPPNNTDSSSLVPGAQDSAPPGPTLRELWWVFYAADRALEEPRADSGLTREEVRAVRGFREQAWKLFGSAGAPRAFIGAALGLSPLQKLAVYYYIIHRERRLSPFPALVRLVGRYTQRHGLYVPRPDDPVLADAINGLFRDALAAGTTAEQLLMFDLLPPKDVPVGSDVQADSTALLRFIESQRLAVPGGVISPEHVAYLGAFLSVLYAGRGRMSAATHTARLTGVTSLVLAVGDVDRLSAFDRGAAGAASRTRAAGYLDVLLTVRLARSQHGQSV",Competition with GADD34 peptide for PP1 binding,[4],competes with the GADD34 peptide for binding to the PP1 hydrophobic groove; also recorded: the ability to compete with the GADD34 peptide for PP1 binding
"pUL21-GFP (protein, left off: GFP (from the vector pEGFP-N1), end not stated, kept) MELSYATTMHYRDVVFYVTTDRNRAYFVCGGCVYSVGRPCASQPGEIAKFGLVVRGTGPDDRVVANYVRSELRQRGLQDVRPIGEDEVFLDSVCLLNPNVSSELDVINTNDVEVLDECLAEYCTSLRTSPGVLISGLRVRAQDRIIELFEHPTIVNVSSHFVYTPSPYVFALAQAHLPRLPSSLEALVSGLFDGIPAPRQPLDAHNPRTDVVITGRRAPRPIAGSGAGSGGAGAKRATVSEFVQVKHIDRVGPAGVSPAPPPNNTDSSSLVPGAQDSAPPGPTLRELWWVFYAADRALEEPRADSGLTREEVRAVRGFREQAWKLFGSAGAPRAFIGAALGLSPLQKLAVYYYIIHRERRLSPFPALVRLVGRYTQRHGLYVPRPDDPVLADAINGLFRDALAAGTTAEQLLMFDLLPPKDVPVGSDVQADSTALLRFIESQRLAVPGGVISPEHVAYLGAFLSVLYAGRGRMSAATHTARLTGVTSLVLAVGDVDRLSAFDRGAAGAASRTRAAGYLDVLLTVRLARSQHGQSV",Co-IP of endogenous PP1α,[5],efficiently precipitate endogenous PP1α
same,Co-precipitation of endogenous PP1α,[6],"co-precipitates with endogenous PP1α, PP1β and PP1γ"
same,Co-precipitation of endogenous PP1β,[7],"co-precipitates with endogenous PP1α, PP1β and PP1γ"
same,Co-precipitation of endogenous PP1γ,[8],"co-precipitates with endogenous PP1α, PP1β and PP1γ"
"{FITC′-Ahx}-KARKVRFSEKVTVHFLA (GADD34 (PP1 regulatory subunit 15A), residues 552-568, RVxF and ϕϕ[xF] motifs; also called fluorescent GADD34 peptide; GADD34 peptide; source: synthetic peptide (GenScript, >95% purity)) [GADD34 RVxF+ϕϕ[xF] peptide (residues 552–568), FITC-labelled]",Kd,[9],55 nM
same,Kd,[10],144 nM
